This is an account of results in US8604172B2, “Humanized antibody compositions and methods for binding lysophosphatidic acid” (Lpath, Inc., priority 2009, dated 2013).

Assay [1] is described as follows: BIAcore 3000 kinetics, LPA immobilized on sensor chip. It is filed as binding. The procedure: The kinetics parameters ka (association rate constant), kd (disassociation rate constant) and KD ([…] equilibrium constant) were determined for the 6 lead candidates using the BIAcore 3000 Biosensor machine. In this study, LPA was immobilized on the sensor surface and the anti-LPA mAbs were flowed in solution across the surface.
LPA was immobilized to the sensor chip at densities ranging 150 resonance units. Dilutions of each mAb were passed over the immobilized LPA and kinetic constants were obtained by nonlinear regression of association/dissociation phases. Errors are given as the standard deviation using at least three determinations in duplicate runs. Apparent affinities were determined by […].
ka=Association rate constant in M^−1s^−1kd=Dissociation rate constant in s^−1

Assay [2] in a line: Competition ELISA (18:1 LPA coat), competitor 14:0 LPA. Conditions: maximum inhibition (% of binding in the absence of inhibitor). The procedure:
(§1) Many isoforms of LPA have been identified to be biologically active and it is preferable that the mAb recognize all of them to some extent to be of therapeutic relevance. The specificity of the anti-LPA mAbs was evaluated utilizing a competition assay in which the competitor lipid was added to the antibody-immobilized lipid mixture.
(§2) Competition ELISA assays were performed with the anti-LPA mAbs to assess their specificity. 18:1 LPA was captured on ELISA plates. Each competitor lipid (up to 10 uM) was serially diluted in BSA (1 mg/ml)-PBS and then incubated with the mAbs (3 nM). Mixtures were then transferred to LPA coated wells and the amount of bound antibody was measured with a secondary antibody. Data are normalized to maximum signal (A450) and are expressed as percent inhibition. Assays were performed in triplicate. IC50: Half maximum inhibition concentration; MI: Maximum inhibition (% of binding in the absence of inhibitor); - - -: not estimated because of weak inhibition. A high inhibition result indicates recognition of the competitor lipid by the antibody.

The nature of assay [3]: Competition ELISA (18:1 LPA coat), competitor 16:0 LPA. It is filed as binding. The settings on record: maximum inhibition. How it is done: as §1, §2
Assay [4] can be described thus: Competition ELISA (18:1 LPA coat), competitor 20:4 LPA. It is filed as binding. Conditions: maximum inhibition. How it is done:
as §1, §2

Assay [5] deals with human colon cancer cell line (COLO-205). The assay can be described thus: Xenograft CAM assay. The class given is in vivo.

B1: LT3000: Murine anti-LPA monoclonal antibody clone B7, IgG1k, renamed Lpathomab, also known as LT3000; hybridoma 504B7.1, ATCC PTA-8420 (antibody, V domains shown)
VH: QVQLQQSGAELVRPGTSVKVSCKASGYGFINYLIEWIKQRPGQGLEWIGLINPGSDYTNYNENFKGKATLTADKSSSTAYMHLSSLTSEDSAVYFCARRFGYYGSGNYFDYWGQGTTLTVSS
VL: DVVMTQTPLSLPVSLGDQASISCTSGQSLVHINGNTYLHWYLQKPGQSPKLLIYKVSNLFSGVPDRFSGSGSGTDFTLKISRVEAEDLGVYFCSQSTHFPFTFGTGTKLEIK
B1: in assay [1] (apparent affinity), the Kd was determined as 1.6 ± 0.1 pM. The “ka (M^−1 s^−1)” value in assay [1] (association rate constant, ± standard deviation) was 6.2 ± 0.1 × 10^5 M^−1 s^−1. Also, in assay [1] (dissociation rate constant), the “kd” value came out at 1e-06 s⁻¹. Further, the “MI, 14:0 LPA” value in assay [2] turned out to be 61.3%. For the same molecule, the “MI, 16:0 LPA” value in assay [3] is recorded as 62.9%. In assay [4], the “MI, 20:4 LPA” value was found to be 67%. In addition, in assay [5], the tumor size result was “significantly reduced”.
